Reference: patent publication US20210008180A1, “FORMULATIONS CONTAINING MUCIN-AFFECTING PROTEASES” (MUCPHARM PTY LTD, priority 2018, published 2021)

Legend:
[1] = Release of Papain from DC Beads (300-500 μm), azo-casein assay; assay type: physicochemical; details: 80 μL, loaded from 200 μL 5 mg/mL Papain, 6 hrs, 5 mL PBS pH 6.5
Method: 80 μL of DC Beads® (300-500 μm) were taken in a 1.5 mL centrifuge tube and washed twice with distilled water. 200 μL of a 5 mg/mL Papain solution was added and the mixture incubated at room temperature for 6 hrs with gentle agitation. The beads were then washed twice with distilled water and suspended in 5 mL PBS pH 6.5. The first sample of 250 μL was taken at 30 min, and thereafter samples were taken every hour for the next 16 hrs, with 250 μL PBS being replaced each time. The Papain concentration in the samples was measured by azo-casein assay and the cumulative release of Papain from the DC Beads as a function of time is set out in Graph shown below.

HT29 cells = experiment: Efficacy of Papain released from DC Beads in Transwell chamber; assay type: cell-based, human; details: 5 mg/ml Papain (500 μg/80 μl beads) loaded beads in Transwell chamber; after 3 hours
Method: Subsequently, experiments were conducted to determine the efficacy of the Papain released from the beads. In these experiments, HT29 cells (human colorectal cancer cell line) were seeded in 24 well plates. After 24 h, the plates were treated with 5 mg/ml Papain (500 μg/80 μl beads) loaded beads in a Transwell chamber. After every 3 h, the Transwell chamber containing beads was transferred to a fresh well. This process was continued up to 3 days.

B1: Papain: plant-derived mucin-affecting protease enzyme extracted from papaya; loaded into DC Beads 300-500 μm (protein, UniProt P00784 134-345, looked up)
Papain: IPEYVDWRQKGAVTPVKNQGSCGSCWAFSAVVTIEGIIKIRTGNLNEYSEQELLDCDRRSYGCNGGYPWSALQLVAQYGIHYRNTYPYEGVQRYCRSREKGPYAAKTDGVRQVQPYNEGALLYSIANQPVSVVLEAAGKDFQLYRGGIFVGPCGNKVDHAVAAVGYGPNYILIKNSWGTGWGENGYIRIKRGTGNSYGVCGLYTSSFYPVKN
modifications: loaded into DC Beads
notes: plant-derived mucin-affecting protease enzyme extracted from papaya; loaded into DC Beads 300-500 μm
duration of sustained release of Papain [1]: greater than 16 hours | effect of Papain released from the DC Beads on cells (HT29 cells): death of all cells
